These results are taken from article PMC5862935, “YcfDRM is a thermophilic oxygen-dependent ribosomal protein uL16 oxygenase” (Extremophiles, 2018).

Substrate in data set [1]: O=C(O)CCC(=O)C(=O)O
Put plainly: MALDI-MS peptide hydroxylation assay, steady-state kinetics. The format is biochemical, Escherichia coli. Conditions: co-substrates uL16 peptide fragment and O2; Fe(II), ascorbate; temperature and pH for this row not explicitly stated in main text.

Substrate in data set [2]: O=C(O)CCC(=O)C(=O)O
The data set is described as above. The format is biochemical, Rhodothermus marinus. Conditions: co-substrates uL16RM peptide fragment and O2, Fe(II), ascorbate, 50 mM HEPES pH 7.5, 37 °C.

B1: ycfDEC (Escherichia coli K-12) (protein)
chain: MEYQLTLNWPDFLERHWQKRPVVLKRGFNNFIDPISPDELAGLAMESEVDSRLVSHQDGKWQVSHGPFESYDHLGETNWSLLVQAVNHWHEPTAALMRPFRELPDWRIDDLMISFSVPGGGVGPHLDQYDVFIIQGTGRRRWRVGEKLQMKQHCPHPDLLQVDPFEAIIDEELEPGDILYIPPGFPHEGYALENAMNYSVGFRAPNTRELISGFADYVLQRELGGNYYSDPDVPPRAHPADVLPQEMDKLREMMLELINQPEHFKQWFGEFISQSRHELDIAPPEPPYQPDEIYDALKQGEVLVRLGGLRVLRIGDDVYANGEKIDSPHRPALDALASNIALTAENFGDALEDPSFLAMLAALVNSGYWFFEG
notes: purified E. coli YcfD; construct not described in main text
For the protein B1, the Km (commonly the concentration of substrate that gives half-maximal velocity) in data set [1] worked out at 8.6 ± 3.4 µM.

B2: ycfDRM (Rhodothermus marinus DSM 4252) (protein)
chain: MQLPETILGGLAPEEFLANYWQKRPLLIRQALPGFRSPITPEELAGLACEEGVTARLILEKGGAYPWEVRYGPFEPEDFVALPPTHWTLLVQEVDRLVPEVAALLETVRFVPNWRLDDIMVSYAPEGGTVGAHIDNYDVFLVQAWGRRRWQINHRPVEREELVPGLEVRLLAHFEPDAEWILEPGDVLYLPPRIPHYGVALEDCMTFSIGFRAPDQAELAEAMPRMAAWLDGGRRYADPDLTPADEPGEITPEALDQIQALLRALIDDRERLARWFGCIITEPRRGLPPEPPGRPLSAKQLHRRLQQGATLRRNAIPELAYVRHADGSATLFASGEAYELSPELADVAPLLTGRRPLTAETLRPWLERDDFLELLQTLIHSGILSLIPARKR
notes: pET28a NdeI/SacI, expressed in E. coli BL21(DE3); HisTrap and Superdex 75 purified
Consider B2, for which the Km in data set [2] worked out at 71.1 ± 12.2 µM.
